# Results reported in patent US20090098123A1 (ROCKEFELLER UNIVERSITY, published 2009).
# B1: human CLDN1 (Claudin-1), wild type (receptor)
# chain: MANAGLQLLGFILAFLGWIGAIVSTALPQWRIYSYAGDNIVTAQAMYEGLWMSCVSQSTGQIQCKVFDSLLNLSSTLQATRALMVVGILLGVIAIFVATVGMKCMKCLEDDEVQKMRMAVIGGAIFLLAGLAILVATAWYGNRIVQEFYDPMTPVNARYEFGQALFTGWAAASLCLLGGALLCCSCPRKTTSYPTPRPYPKPAPSSGKDYV
# notes: also called wild-type CLDN1
# B2: human CD81 (receptor)
# chain: MGVEGCTKCIKYLLFVFNFVFWLAGGVILGVALWLRHDPQTTNLLYLELGDKPAPNTFYVGIYILIAVGAVMMFVGFLGCYGAIQESQCLLGTFFTCLVILFACEVAAGIWGFVNKDQIAKDVKQFYDQALQQAVVDDDANNAKAVVKTFHETLDCCGSSTLTALTTSVLKNNLCPSGSNIISNLFKEDCHQKIDDLFSGKLYLIGIAAIVVAVIMIFEMILSMVLCCGIRNSSVY
# notes: whole, on cells
# Key:
# [1] = target: GFP-CLDN1 with a single FLAG epitope inserted in EL1 at position F6 (human) (UniProt O95832); assay: cell-based or functional assay
# [2] = target: GFP-CLDN1 with a single FLAG epitope inserted in EL1 at position F8 (human) (UniProt O95832); assay: cell-based or functional assay
# [3] = target: GFP-CLDN1 with a single FLAG epitope inserted in EL1 at position F9 (human) (UniProt O95832); assay: cell-based or functional assay
# [4] = target: CLDN1 F10x3 (GFP-CLDN1 with a triple FLAG epitope inserted in EL1 at position F10) (human) (UniProt O95832); assay: cell-based or functional assay
# [5] = target: human CD81 (human) (UniProt P60033); assay: cell-based or functional assay
# [6] = target: T1, J6/JFH HCVcc (cell culture infectious HCV particles of the chimeric genotype 2a J6/JFH genome) (Hepatitis C virus genotype 2a, isolate …, UniProt P26660 192-383; P26660 384-750); assay: HCVcc bound to transduced CHO cells 2 h at 37 C; cell-associated HCV RNA by real-time RT-PCR
# T1 construct: A whole enveloped virion, not a single protein
molecule,measurement,setting,value
anti-FLAG M2 monoclonal antibody (Sigma),"reduction of HCVpp permissiveness (luciferase) of 293T cells expressing the clone, in the presence of antibody",[1],< 90%
same,"reduction of HCVpp permissiveness (luciferase) of 293T cells expressing the clone, in the presence of antibody",[2],< 45%
same,"reduction of HCVpp permissiveness (luciferase) of 293T cells expressing the clone, in the presence of antibody",[3],< 62%
same,time after the temperature shift at which antibody addition still gives half-maximal inhibition of HCVpp infection (synchronized infection),[4],73 min
JS81 anti-CD81 antibody (BD Pharmingen),time after the temperature shift at which antibody addition still gives half-maximal inhibition of HCVpp infection (synchronized infection),[5],18 min
B1,binding result,[6],no binding (tested: MOI ~0.5)
B2,binding result,[6],no binding (tested: MOI ~0.5)
